Sequences and labels used below:
T1: Angiopoietin-2 binding to Tie-2 (Homo sapiens, UniProt O15123)
T1 construct: purchased R&D Systems, Inc. BT623 (Angiopoietin-2, biotinylated); 313-TI-100 (Tie-2/Fc)
T1 sequence (O15123 19-496): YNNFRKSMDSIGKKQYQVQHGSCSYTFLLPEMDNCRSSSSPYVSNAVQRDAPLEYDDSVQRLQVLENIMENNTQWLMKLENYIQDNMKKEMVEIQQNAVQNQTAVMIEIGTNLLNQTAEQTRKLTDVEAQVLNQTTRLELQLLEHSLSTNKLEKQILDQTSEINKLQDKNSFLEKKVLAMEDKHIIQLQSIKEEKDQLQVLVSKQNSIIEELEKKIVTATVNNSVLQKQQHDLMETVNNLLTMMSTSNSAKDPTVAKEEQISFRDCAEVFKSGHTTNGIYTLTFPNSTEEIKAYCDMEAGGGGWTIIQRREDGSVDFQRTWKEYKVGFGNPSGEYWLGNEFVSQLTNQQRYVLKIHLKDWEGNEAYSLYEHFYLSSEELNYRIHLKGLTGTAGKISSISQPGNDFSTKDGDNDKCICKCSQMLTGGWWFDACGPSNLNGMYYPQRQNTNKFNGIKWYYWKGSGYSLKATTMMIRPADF

B1: Tie-2/Fc: soluble recombinant human Tie-2/Fc fusion protein (R&D Systems), positive control (protein)
chain: AMDLILINSLPLVSDAETSLTCIASGWRPHEPITIGRDFEALMNQHQDPLEVTQDVTREWAKKVVWKREKASKINGAYFCEGRVRGEAIRIRTMKMRQQASFLPATLTMTVDKGDNVNISFKKVLIKEEDAVIYKNGSFIHSVPRHEVPDILEVHLPHAQPQDAGVYSARYIGGNLFTSAFTRLIVRRCEAQKWGPECNHLCTACMNNGVCHEDTGECICPPGFMGRTCEKACELHTFGRTCKERCSGQEGCKSYVFCLPDPYGCSCATGWKGLQCNEACHPGFYGPDCKLRCSCNNGEMCDRFQGCLCSPGWQGLQCEREGIQRMTPKIVDLPDHIEVNSGKFNPICKASGWPLPTNEEMTLVKPDGTVLHPKDFNHTDHFSVAIFTIHRILPPDSGVWVCSVNTVAGMVEKPFNISVKVLPKPLNAPNVIDTGHNFAVINISSEPYFGDGPIKSKKLLYKPVNHYEAWQHIQVTNEIVTLNYLEPRTEYELCVQLVRRGEGGEGHPGPVRRFTTASIGLPPPRGLNLLPKSQTTLNLTWQPIFPSSEDDFYVEVERRSVQKSDQQNIKVPGNLTSVLLNNLHPREQYVVRARVNTKAQGEWSEDLTAWTLSDILPPQPENIKISNITHSSAVISWTILDGYSISSITIRYKVQGKNEDQHVDVKIKNATITQYQLKGLEPETAYQVDIFAENNIGSSNPAFSHELVTLPESQAPADLGGGK
modifications: left off: a dimerising Fc or GST
notes: soluble recombinant human Tie-2/Fc fusion protein (R&D Systems), positive control
B2: mAb 5.28.1: fully human anti-Angiopoietin-2 monoclonal antibody, variable regions SEQ ID NO: 17-20 (antibody, listed as Homo sapiens, listed as Homo Sapiens, V domains shown)
VH: EVQLVESGGIVVQPGGSLRLSCAASGFTFDDYTMHWVRQTPGKGLEWVSLISWDGGSTYYADSVKGRFTISRDNSKNSLYLQMNSLRTEDTALYYCAKDIDIAVAGTGFDHWGQGTLVTVSSA
VL: EIVMTQSPATLSVSPGERATLSCRASQSVTSNLAWYQQKPGQAPRLLIYGALIRATGIPARFSGSGSGTEFTLTISSLQSEDFAVYYCQQYNNWPFTFGPGTKVDIKR
B3: mAb 3.3.2: fully human anti-Angiopoietin-2 monoclonal antibody, variable regions SEQ ID NO: 1-4 (antibody, listed as Homo Sapiens, V domains shown)
VH: EVQLVESGGGLVQPGGSLRLSCAVSGFTFSSYWMSWVRQAPGKGLEWVANIKQDGSEKYYVDSVKGRFTISRDNAKNSLYLQMNSLRAEDTAVYYCARDQGIAVAGPFDYWGQGTLVTVSSA
VL: EIVMTQSPATLSVSPGERATLSCRASQTVSSDLAWYQQKPGQAPRLLIYGASIRATGIPARFSGSGSGTEFTLTISSLQSEDFAVYSCQQYYNWWTFGQGTKVEIKR
B4: mAb 5.88.3: fully human anti-Angiopoietin-2 monoclonal antibody, variable regions SEQ ID NO: 29-32 (antibody, listed as Homo Sapiens, V domains shown)
VH: EVQMVESGGGLVQPGGSLRLSCAASGFTLRSYWMSWVRQAPGKGLEWVANIKEDGSEKYHVDSVKGRFTISRDNAENSLFLQMSSLRAEDTAVYYCARDMEASAGLFDYWGQGTLVTVSSA
VL: B3 VL with T20I, T28S, V29I, D32N, I53T, S87Y, Y92N, N93Y
B5: mAb 3.31.2: fully human anti-Angiopoietin-2 monoclonal antibody, variable regions SEQ ID NO: 9-12 (antibody, listed as Homo sapiens, V domains shown)
VH: EVQLVESGGGLVQPGGSLRLSCAASGFTFSSYWMSWVRQAPGKGLEWVANIKQDGSDKYYVDSVKGRFTISRDNAKNSLYLRMNSLRAEDTAVFYCARDMGSGWFDYWGQGTLVTVSSA
VL: B3 VL with I2V, T28S, S30G, D32N, I53T, S87C, Y92N, N93H
B6: mAb 5.16.3: fully human anti-Angiopoietin-2 monoclonal antibody, variable regions SEQ ID NO: 13-16 (antibody, listed as Homo sapiens, listed as Homo Sapiens, V domains shown)
VH: QVQLVQSGAEVKKPGASVKVSCKASGYTFTGFYMYWVRQAPGQGLEWMGWINPNSSGTNHAQKFQGRVTMTRDTSISTAYMELSRLRSDDTAVYYCARDQDIATAGPFDYWGQGTLVTVSS
VL: B3 VL with T28S, D32N, Y49F, I53T, S87Y, Y92N, Q99R
B7: mAb 5.86.1: fully human anti-Angiopoietin-2 monoclonal antibody, variable regions SEQ ID NO: 25-28 (antibody, listed as Homo Sapiens, listed as Homo sapiens, V domains shown)
VH: QVQLVQSGAEVKKPGASVKVSCKASGYTFTGYHMYWVRQAPGQGLEWLGWINPNSGGTNYAQKFQGRVTMTRDTSISTAYMELSRLRSDDTAVYYCVRDQGIAAAGPFDYWCQGTLVTVSSA
VL: DIRMTQSPSSLSASVGDRVTITCRASQRISTYLNWYQQKPGKAPKFLIYAASSLQSGVPSRFSGSGSGTDFTLTISSLQPEDFATYYCQQSYTTPFTFGPGTKVDIKR

The term EC50 denotes the concentration needed to bring the measured effect to its halfway point. Read a high EC50 as a need for much substance.

Positions count from the first letter of the chain named.

The first test addresses T1, Angiopoietin-2 binding to Tie-2. The test is described as follows: Competitive binding assay (modified ELISA): inhibition of Angiopoietin-2 binding to Tie-2. Conditions: positive control at 10-fold molar excess to Angiopoietin-2. On the procedure:
As discussed above, Angiopoietin-2 exerts its biological effect by binding to the Tie-2 receptor. Monoclonal antibodies that inhibited Angiopoietin-2/Tie-2 binding were identified by a competitive binding assay using a modified ELISA. The mAb used were products of micro-purification from 50 ml of exhaustive supernatants of the hybridoma pools that were specific for Angiopoietin-2 (see above). 96-well Nunc Immplates™ were coated with 100 μl of recombinant human Tie-2/Fc fusion protein (R&D Systems, Inc., Cat. No. 313-TI-100) at 4 μg/ml by incubating overnight at 4° C. The plates were washed four times using Phosphate Buffer Saline (PBS) with a Skan™ Washer 300 station (SKATRON). The wells were blocked by 100 μl of ABX-blocking buffer (0.5% BSA, 0.1% Tween, 0.01% Thimerosal in PBS) for 1 hour.
Biotinylated recombinant human Angiopoietin-2 (R&D Systems, Inc. Cat. No. […] The plates were incubated at room temperature for two hours before the unbound molecules were washed off. Bound biotinylated Angiopoietin-2 was then detected using 100 μl/well of Streptavidin-HRP conjugate at 1:200 by incubating at room temperature for half an hour. After washing twice, the bound Streptavidin was detected by HRP substrate (R&D Systems, Cat. No. DY998). The plates were incubated for 30 minutes before 450 stop solution (100 μl/well, BioFX, Cat# BSTP-0100-01) was added to terminate the reaction. The light absorbance at 450 nm was determined by a Spectramax Plus reader.
Soluble recombinant Tie-2/Fc fusion protein at 10-fold molar excess to Angiopoietin-2 was used as a positive control. At this concentration, Tie-2/Fc inhibited binding of Angiopoietin-2 to immobilized Tie-2 by 80%.
To quantitate the inhibitory activities of the mAb on Angiopoietin-2 binding to Tie-2, the titer was determined for purified mAbs from the top candidates using a competitive binding assay. Each concentration of the mAb was tested in duplicate. The concentration-response relationship was found by curve fitting using Graphpad Prism™ graphic software (non-linear, Sigmoid curve). The maximal inhibition (efficacy) and IC50 (potency) were calculated by the software.
Background: In an ELISA, binding on a coated surface is turned into a signal by an enzyme label.
Consider B1, for which the “inhibition of binding of Angiopoietin-2 to immobilized Tie-2” value is on record as 80%.

Staying with this test, now noted: potency, competitive binding of Angiopoietin-2 to Tie-2, purified mAb.
In the case of B2, the concentration giving a half-maximal response (EC50) is 2.698 µg/mL. In the case of B3, the “EC50” value worked out at 0.1684 µg/mL. On to B4, for which the “EC50” value came to 0.1557 µg/mL. The EC50 values of the last two molecules are within 1.5-fold of each other. B5: the “EC50” value was found to be 0.04169 µg/mL. Same read-out and setting: the result for B6 reads 0.08532 µg/mL; that for B7, 0.1331 µg/mL.

The same test, now with this note: ratio of bound Angiopoietin-2 with mAb (30 μg/ml) versus without mAb.
On to B2, for which the “Efficacy*” value is 0.3892. Take B3: the “Efficacy*” value is given as 0.3881. On to B4, for which the “Efficacy*” value worked out at 0.4032. In the case of B5, the “Efficacy*” value worked out at 0.3751. Turning to B6, the “Efficacy*” value is given as 0.3279.

As for B7, the “Efficacy*” value was determined as 0.3844.

The values are drawn from patent US20090123474A1, “COMBINATION OF ANGIOPOIETIN-2 ANTAGONIST AND OF VEGF-A, KDR AND/OR FLTL ANTAGONIST FOR TREATING CANCER” (ASTRAZENECA AB, priority 2005, published 2009).
